Reference: patent publication US20100048677A1 (NEW YORK BLOOD CENTER, published 2010)

How the values were obtained:
[1] = target: αIIb (INTEGRIN, ALPHA 2B; PLATELET GLYCOPROTEIN IIB OF IIB/IIIA COMPLEX, ANTIGEN CD41) (human) (UniProt P08514); test: αIIb complexes captured, mass spectrometry; No. Expts 3
[2] = target: αIIb (INTEGRIN, ALPHA 2B; PLATELET GLYCOPROTEIN IIB OF IIB/IIIA COMPLEX, ANTIGEN CD41) (human) (UniProt P08514); test: αIIb complexes captured, mass spectrometry; No. Expts 2
[3] = target: αIIbβ3 (human) (UniProt P08514); test: antibody staining of UCB-derived megakaryocytes, before thrombin receptor-activating peptide
[4] = target: αIIbβ3 (human) (UniProt P08514); test: antibody staining of UCB-derived megakaryocytes, after thrombin receptor-activating peptide
[5] = target: αIIb (INTEGRIN, ALPHA 2B; PLATELET GLYCOPROTEIN IIB OF IIB/IIIA COMPLEX, ANTIGEN CD41) (human) (UniProt P08514); test: αIIb complexes captured, mass spectrometry; No. Expts 1
[6] = target: αIIb (INTEGRIN, ALPHA 2B; PLATELET GLYCOPROTEIN IIB OF IIB/IIIA COMPLEX, ANTIGEN CD41) (human) (UniProt P08514); test: αIIb complexes captured, mass spectrometry; No. Expts 4
[7] = target: T1, mature αIIbβ3 complex (human, UniProt P08514 32-887; P08514 891-1039; P05106 27-788); test: co-immunoprecipitation with conformation-specific mAb M148, immunoblot for DNAJC10
T1 construct: Endogenous, from megakaryocyte lysates

KIAA1529 (from UniProt Q9P1Z9 1-1701)
#Peptides [1]: 62 peptides

FILAMIN A, ALPHA (ACTIN BINDING PROTEIN 280) (from UniProt P21333 2-2647)
#Peptides [2]: 14 peptides

TUBULIN, BETA (from UniProt P07437 1-444)
#Peptides [2]: 52 peptides

ALDEHYDE DEHYDROGENASE 18 FAMILY, MEMBER A1 (from UniProt P54886 1-795)
#Peptides [2]: 16 peptides

CHAPERONIN CONTAINING TCP1, SUBUNIT 2 (BETA) (from UniProt P78371 2-535)
#Peptides [2]: 20 peptides

GLUTAMATE DEHYDROGENASE 1 (from UniProt P00367 54-558)
#Peptides [1]: 83 peptides

HETEROGENEOUS NUCLEAR RIBONUCLEOPROTEIN L (from UniProt P14866 1-589)
#Peptides [2]: 26 peptides

PLASMINOGEN (from UniProt P00747 20-810)
#Peptides [1]: 22 peptides

SHROOM3 F-ACTIN BINDING PROTEIN (from UniProt Q8TF72 1-1996)
#Peptides [1]: 7 peptides

PAC1, an activation-dependent, ligand-mimetic anti-αIIbβ3 monoclonal antibody
percentage of UCB cells recognized [3]: 3%
percentage of UCB cells recognized [4]: 16%

DEAH (ASP-GLU-ALA-HIS) BOX PO… 15 (from UniProt O43143 1-795)
#Peptides [2]: 68 peptides

5′-NUCLEOTIDASE DOMAIN CONTAINING 2 (from UniProt Q9H857 1-520)
#Peptides [2]: 34 peptides

THIOREDOXIN DOMAIN CONTAINING 4 (ENDOPLASMIC RETICULUM) (from UniProt Q9BS26 30-406)
#Peptides [1]: 20 peptides

SRY (SEX … REGION Y)-BOX 6 (from UniProt P35712 1-828)
#Peptides [5]: 2 peptides

CYCLIN B2 (from UniProt O95067 1-398)
#Peptides [5]: 2 peptides

CORTACTIN (from UniProt Q14247 1-550)
#Peptides [5]: 5 peptides

POLYMERASE (DNA-DIRECTED), DELTA … PROTEIN 2 (from UniProt Q9Y2S7 52-368)
#Peptides [5]: 11 peptides

KINESIN FAMILY MEMBER 14 (from UniProt Q15058 1-1648)
#Peptides [5]: 7 peptides

PYRUVATE KINASE, MUSCLE (from UniProt P14618 2-531)
#Peptides [5]: 13 peptides

ASPARTYL-TRNA … (from UniProt P14868 1-501)
#Peptides [6]: 65 peptides

CITRON (RHO-…, SERINE/THREONINE KINASE 21) (from UniProt O14578 1-2027)
#Peptides [5]: 4 peptides

HTRA SERINE … 2 (from UniProt O43464 134-458)
#Peptides [5]: 8 peptides

CARS2 (HYPOTHETICAL PROTEIN FLJ12118) (from UniProt Q9HA77 1-564)
#Peptides [5]: 9 peptides

PATCHED DOMAIN CONTAINING 2 (from UniProt Q9P2K9 1-1392)
#Peptides [5]: 2 peptides

COILED-COIL DOMAIN CONTAINING 50 (from UniProt Q8IVM0 2-306)
#Peptides [5]: 7 peptides

HEAT SHOCK 70 kDa PROTEIN 9B (MORTALIN-2) (from UniProt P38646 47-679)
#Peptides [5]: 11 peptides

GLUTAMATE RECEPTOR, IONOTROPIC, N-METHYL D-… 2D (from UniProt O15399 28-1336)
#Peptides [5]: 2 peptides

ADP-… GLUCOKINASE (from UniProt Q9BRR6 23-497)
#Peptides [5]: 9 peptides

DYNAMIN BINDING PROTEIN (from UniProt Q6XZF7 1-1577)
#Peptides [2]: 30 peptides

RAVER1 (from UniProt Q8IY67 2-606)
#Peptides [5]: 2 peptides

HEAT SHOCK 70 kDa PROTEIN 8 (from UniProt P11142 2-646)
#Peptides [2]: 11 peptides

CASEIN KINASE 2, ALPHA PRIME PO… (from UniProt P19784 1-350)
#Peptides [5]: 3 peptides

HEAT SHOCK 70 kDa PROTEIN 1B (from UniProt P0DMV9 2-641)
#Peptides [5]: 15 peptides

TRANSLOCASE OF INNER MITOCHONDRIAL MEMBRANE 50 HOMOLOG (from UniProt Q3ZCQ8 45-353)
#Peptides [5]: 4 peptides

LECTIN, MANNOSE-BINDING, 1 (from UniProt P49257 31-510)
#Peptides [5]: 16 peptides

FERM AND PDZ DOMAIN CONTAINING 1 (from UniProt Q5SYB0 1-1578)
#Peptides [5]: 4 peptides

EXOSOME COMPONTENT 10 (from UniProt Q01780 1-885)
#Peptides [5]: 9 peptides

RAB … LYSOSOMAL PROTEIN-LIKE 1 (from UniProt Q5EBL4 1-403)
#Peptides [5]: 7 peptides

CHAPERONIN CONTAINING TCP1, SUBUNIT 4 (DELTA) (from UniProt P50991 2-539)
#Peptides [5]: 8 peptides

ATP SYNTHASE, H+ TRANSPORTING, MITOCHONDRIAL F1 COMPLEX, ALPHA SUBUNIT 1, CARDIAC MUSCLE (from UniProt P25705 44-553)
#Peptides [5]: 2 peptides

N-ACETYLGLUCOSAMINE KINASE (from UniProt Q9UJ70 2-344)
#Peptides [5]: 4 peptides

MALIC ENZYME 2, NAD(+)-…, MITOCHONDRIAL (from UniProt P23368 19-584)
#Peptides [5]: 20 peptides

MYELOPEROXIDASE (from UniProt P05164 165-745)
#Peptides [5]: 3 peptides

LOC731751 (UNKNOWN PROTEIN)
#Peptides [5]: 15 peptides

UBR4 (ZINC FINGER, UBR1 TYPE 1) (from UniProt Q5T4S7 1-5183)
#Peptides [5]: 8 peptides

SODIUM CHANNEL, VOLTAGE-GATED, TYPE X, ALPHA (from UniProt Q9Y5Y9 1-1956)
#Peptides [5]: 11 peptides

… EXPRESSED 10 (from UniProt Q86TG7 1-708)
#Peptides [5]: 3 peptides

STATHMIN-LIKE 3 (from UniProt Q9NZ72 1-180)
#Peptides [5]: 2 peptides

…, DSH HOMOLOG 2 (DROSOPHILA) (from UniProt O14641 1-736)
#Peptides [5]: 3 peptides

B1: DNAJC10 (DNAJ (HSP40) HOMOLOG, SUBFAMILY C, MEMBER 10) (other)
chain: DQDFYSLLGVSKTASSREIRQAFKKLALKLHPDKNPNNPNAHGDFLKINRAYEVLKDEDLRKKYDKYGEKGLEDNQGGQYESWNYYRYDFGIYDDDPEIITLERREFDAAVNSGELWFVNFYSPGCSHCHDLAPTWRDFAKEVDGLLRIGAVNCGDDRMLCRMKGVNSYPSLFIFRSGMAPVKYHGDRSKESLVSFAMQHVRSTVTELWTGNFVNSIQTAFAAGIGWLITFCSKGGDCLTSQTRLRLSGMLDGLVNVGWMDCATQDNLCKSLDITTSTTAYFPPGATLNNKEKNSILFLNSLDAKEIYLEVIHNLPDFELLSANTLEDRLAHHRWLLFFHFGKNENSNDPELKKLKTLLKNDHIQVGRFDCSSAPDICSNLYVFQPSLAVFKGQGTKEYEIHHGKKILYDILAFAKESVNSHVTTLGPQNFPANDKEPWLVDFFAPWCPPCRALLPELRRASNLLYGQLKFGTLDCTVHEGLCNMYNIQAYPTTVVFNQSNIHEYEGHHSAEQILEFIEDLMNPSVVSLTPTTFNELVTQRKHNEVWMVDFYSPWCHPCQVLMPEWKRMARTLTGLINVGSIDCQQYHSFCAQENVQRYPEIRFFPPKSNKAYHYHSYNGWNRDAYSLRIWGLGFLPQVSTDLTPQTFSEKVLQGKNHWVIDFYAPWCGPCQNFAPEFELLARMIKGKVKAGKVDCQAYAQTCQKAGIRAYPTVKFYFYERAKRNFQEEQINTRDAKAIAALISEKLETLRNQGKRNKDEL
notes: Endogenous protein in lysates of human UCB-derived megakaryocytes or HEK293 cells
binding result [7]: no binding
